Experiment [1] has as its system cancer cells. To be noted: known from literature; cited from earlier work.
The test system of experiment [2] is all 10 types of SIRPα variant. To be noted: Patent References 1 to 3; cited from earlier work.
Experiment [3] addresses SIRPγ (Homo sapiens, UniProt Q9P1W8). To be noted: Patent References 1 to 3; cited from earlier work.
In experiment [4] the target is SIRPβ1 (Homo sapiens, UniProt O00241). To be noted: Patent References 1 to 3; cited from earlier work.
Sequence of SIRPβ1 (O00241 30-398): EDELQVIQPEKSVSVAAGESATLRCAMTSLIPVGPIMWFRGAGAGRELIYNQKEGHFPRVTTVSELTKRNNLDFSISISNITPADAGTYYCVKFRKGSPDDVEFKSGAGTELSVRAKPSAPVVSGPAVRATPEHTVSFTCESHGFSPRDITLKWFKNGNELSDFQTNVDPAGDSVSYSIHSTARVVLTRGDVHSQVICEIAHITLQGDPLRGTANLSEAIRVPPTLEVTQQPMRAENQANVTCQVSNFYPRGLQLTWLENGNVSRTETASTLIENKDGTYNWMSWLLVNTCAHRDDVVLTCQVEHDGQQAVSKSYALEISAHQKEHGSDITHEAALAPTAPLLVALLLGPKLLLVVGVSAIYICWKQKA
The target of experiment [5] is SIRPα V1 (Homo sapiens, UniProt P78324). To be noted: Patent References 1 to 3; cited from earlier work.
The test system of experiment [6] is CT26.WT-HER3 cells. The experiment can be described thus: Antitumor study (3). The experiment is classed as in vivo, BALB/c mice. To be noted: single administration, 10 mg/kg, Day 18. As for the experimental part:
Mouse: Female 6-week-old BALB/c mice (BALB/c AnNCrlCrlj) (bred by CHARLES RIVER LABORATORIES JAPAN, INC.) were subjected to experiments.
Measurement and calculation formula: the long diameter and short diameter of tumors were measured twice a week with an electronic digital caliper (CD15-CX, manufactured by Mitutoyo Corporation), and the tumor volumes (mm^3) were calculated. The calculation formula is shown below:
Tumor volume (mm^3)=0.5×Long diameter (mm)×[Short diameter (mm)]^2
Individuals having a tumor volume of beyond 3000 mm^3 were humanely killed from an ethical point of view for animal experiments.
The antibody-drug conjugate (3) (Drug-to-Antibody Ratio: 8) and an anti-SIRPα antibody (clone: 5C12) were diluted with PBS, and used for administration.
To mouse colorectal cancer cell line CT26.WT (CRL2638) purchased from the American Type Culture Collection, a human HER3 gene was transfected by use of a lentivirus vector to prepare CT26.WT-HER3 cells, which were put in use. The cells express a human HER3 protein on the cell membrane. CT26.WT-HER3 cells were suspended in saline, and 2.0×10^6 cells were subcutaneously inoculated into the right axilla of each of the BALB/c mice (Day 0). Seven days later, the mice were randomly grouped (Day 7). […] P value was expressed to four decimal places and the results satisfying P<0.05 (two-sided test) were determined as being significant.

Experiment [7] concerns CT26.WT-hTROP2 cells. As to the kind of experiment: Antitumor study (2). The format is in vivo, BALB/c mice. To be noted: single administration, 10 mg/kg, Day 18. As for the experimental part:
Mouse: Female 6-week-old BALB/c mice (BALB/c AnNCrlCrlj) (bred by CHARLES RIVER LABORATORIES JAPAN, INC.) were subjected to experiments. Measurement and calculation formula: the long diameter and short diameter of tumors were measured twice a week with an electronic digital caliper (CD15-CX, manufactured by Mitutoyo Corporation), and the tumor volumes (mm^3) were calculated. The calculation formula is shown below: […] Individuals having a tumor volume of beyond 3000 mm^3 were humanely killed from an ethical point of view for animal experiments. […] An anti-SIRPα antibody (clone: 5C12) was diluted with PBS, and a dose of 10 mL/kg was intraperitoneally administered. […] The cells express a human TROP2 protein on the cell membrane. CT26.WT-hTROP2 cells were suspended in saline, and 2.0×10^6 cells were subcutaneously inoculated into the right axilla of each of the BALB/c mice (Day 0). Seven days later, the mice were randomly grouped (Day 7). […] The anti-SIRPα antibody (clone: 5C12) was intraperitoneally administered at a dose of 10 mg/kg on Day 8, 11 and 13 (three times in total). […] Measurement of the tumor volume was continued until Day 18. […] P value was expressed to four decimal places and the results satisfying P<0.05 (two-sided test) were determined as being significant.

Experiment [8] relates to 4T1-hmHER2 cells. The experiment can be described thus: Antitumor study (1). The experiment is classed as in vivo, BALB/c mice. To be noted: single administration, 10 mg/kg, Day 21.
Experimental: Individuals having a tumor volume of beyond 3000 mm^3 were humanly killed from an ethical point of view for animal experiments.
The antibody-drug conjugate (1) (Drug-to-Antibody Ratio: 7.6) was diluted with PBS, and a dose of 10 mL/kg was intravenously administered to the tail vein.
To mouse breast cancer cell line 4T1 (CRL-2539) purchased from the American Type Culture Collection, a human/mouse chimera HER2 gene was transfected by use of a lentivirus vector to prepare 4T1-hmHER2 cells, which were put in use. The cells express a human/mouse chimera HER2 protein on the cell membrane. Then, 4T1-hmHER2 cells were suspended in PBS and 1.0×10^6 cells were subcutaneously inoculated into the right axilla of each of the BALB/c mice (Day 0). Four days later, the mice were randomly grouped (Day 4). The antibody-drug conjugate (1) was intravenously administered at a dose of 10 mg/kg on Day 4 and 11 (two times in total) to the tail vein. […] P value was expressed to four decimal places and the results satisfying P<0.05 (two-sided test) were determined as being significant.
The target of experiment [9] is T1, mouse SIRPα antigen (Mus musculus, UniProt P97797).
T1 sequence (P97797 32-513): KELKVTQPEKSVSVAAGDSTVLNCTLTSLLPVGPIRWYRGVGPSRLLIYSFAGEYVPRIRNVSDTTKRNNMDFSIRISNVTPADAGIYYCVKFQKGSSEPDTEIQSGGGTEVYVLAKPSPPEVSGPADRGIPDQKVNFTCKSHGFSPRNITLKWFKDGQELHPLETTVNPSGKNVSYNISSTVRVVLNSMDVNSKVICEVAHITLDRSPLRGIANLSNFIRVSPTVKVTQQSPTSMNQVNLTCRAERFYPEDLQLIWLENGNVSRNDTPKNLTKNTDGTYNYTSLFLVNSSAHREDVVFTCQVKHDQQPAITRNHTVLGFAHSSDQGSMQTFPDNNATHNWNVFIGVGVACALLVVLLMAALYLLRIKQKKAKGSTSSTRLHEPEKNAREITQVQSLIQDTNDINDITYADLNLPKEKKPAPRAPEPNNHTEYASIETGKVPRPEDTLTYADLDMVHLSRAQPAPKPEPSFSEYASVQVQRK
As to the kind of experiment: Binding affinity to mouse SIRPα antigen. The procedure: The lymph node cells and mouse myeloma SP2/0-ag14 cells (ATCC: CRL-1581) were fused in accordance with a polyethylene glycol method. The fused cells were suspended in HAT selective medium and cultured in accordance with the limiting dilution method. The hybridoma colonies that emerged were collected. In this manner, monoclonal hybridomas were prepared. The collected hybridoma colonies were cultured. Using the resultant hybridoma culture supernatant, an antibody-producing hybridoma was screened based on binding activity to a mouse SIRPα protein as an index. In this manner, clone: 5C12 was screened.

Sequence of SIRPγ (Q9P1W8 29-387): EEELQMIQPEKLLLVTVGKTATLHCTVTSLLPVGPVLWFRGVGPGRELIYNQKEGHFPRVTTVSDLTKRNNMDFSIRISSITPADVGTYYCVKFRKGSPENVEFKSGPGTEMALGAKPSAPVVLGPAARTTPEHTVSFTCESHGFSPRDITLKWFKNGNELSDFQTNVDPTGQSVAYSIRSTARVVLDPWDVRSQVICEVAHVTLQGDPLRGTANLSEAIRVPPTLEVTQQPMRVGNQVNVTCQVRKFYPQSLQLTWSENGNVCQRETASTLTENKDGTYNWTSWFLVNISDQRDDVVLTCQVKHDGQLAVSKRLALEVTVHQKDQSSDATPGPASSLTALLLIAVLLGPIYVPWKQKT

As to `O=P1(N(CCCl)CCCl)NCCCO1` (stereo not shown) [Cyclophosphamide], the ICD induction entry in experiment [1] is on record as “inducing ICD”.

As for `CC(=O)O[C@@]12CO[C@@H]1C[C@H](O)[C@@]1(C)C(=O)[C@H](O)C3=C(C)[C@@H](OC(=O)[C@H](O)[C@@H](NC(=O)OC(C)(C)C)c4ccccc4)C[C@@](O)([C@@H](OC(=O)c4ccccc4)[C@H]21)C3(C)C` [Docetaxel], the ICD induction entry in experiment [1] is “not confirmed to induce ICD”.

For `CO[C@@]12[C@H](COC(N)=O)C3=C(C(=O)C(C)=C(N)C3=O)N1C[C@@H]1N[C@@H]12` [Mitomycin C], the ICD induction entry in [1] was “not confirmed to induce ICD”.

With `O=C1[O][Pt]2([NH][C@@H]3CCCC[C@H]3[NH]2)[O]C1=O` [Oxaliplatin], in [1], the ICD induction result is given as “inducing ICD”.

With “ADU-1805: anti-SIRPα IgG2 antibody of WO 2018/190719, SEQ ID NO: 28 and 29”, the “binding to all 10 types of SIRPα variant” value in experiment [2] was “binds”. In addition, the “binding to SIRPγ” value in experiment [3] is listed as “binds”.

On to “KWAR23: anti-SIRPα antibody of WO 2018/026600, SEQ ID NO: 26 and 27”, for which, in experiment [2], the “binding to all 10 types of SIRPα variant” value is on record as “binds”. Also, the “binding to SIRPγ” value in [3] is “binds”. The “binding to SIRPβ1” value in [4] is listed as “binds”.

As for “OSE-172: anti-SIRPα IgG4Pro antibody of WO 2017/178653, SEQ ID NO: 24 and 25”, the “binding to SIRPβ1” value in experiment [4] is reported as “binds”. Further, the “binding to SIRPα V1” value in experiment [5] is “binds”.

B1: 5C12: rat-derived anti-mouse SIRPα surrogate antibody, heavy and light chain SEQ ID NOs: 30 and 31 (antibody, listed as Mus musculus)
heavy: MKHLWFFLLLVAAPRWVLSEVQLVESGGGLVQPGGSLKLSCAASGFTFSNYDMAWVRQAPTKGLEWVASISTRGGSSYYRDSVKGRFTVSRDNAKSTLYLQMDSLRSEDTATYYCARHPGDYFDYWGQGVMVTVSSAKTTPPSVYPLAPGSAAQTNSMVTLGCLVKGYFPEPVTVTWNSGSLSSGVHTFPAVLQSDLYTLSSSVTVPSSTWPSETVTCNVAHPASSTKVDKKIVPRDCGCKPCICTVPEVSSVFIFPPKPKDVLTITLTPKVTCVVVAISKDDPEVQFSWFVDDVEVHTAQTQPREEQFNSTFRSVSELPIMHQDWLNGKEFKCRVNSAAFPAPIEKTISKTKGRPKAPQVYTIPPPKEQMAKDKVSLTCMITDFFPEDITVEWQWNGQPAENYKNTQPIMDTDGSYFVYSKLNVQKSNWEAGNTFTCSVLHEGLHNHHTEKSLSHSPGK
light: MVLQTQVFISLLLWISGAYGDTVLTQSPALAVSPGERVTISCRASESVSTLIHWYQQKPGQQPKLLIYLTSHLESGVPARFSGSGSGTDFTLTIDPVEADDTATYYCQQSWTHPWTFGGGTKLELKRADAAPTVSIFPPSSEQLTSGGASVVCFLNNFYPKDINVKWKIDGSERQNGVLNSWTDQDSKDSTYSMSSTLTLTKDEYERHNSYTCEATHKTSTSPIVKSFNRNEC
As to B1, the results for the “antitumor effect (tumor volume) compared to the control group” value in experiment [6], in experiment [7] and in experiment [8] were “no therapeutic effect”, “partial antitumor effect” and “significantly stronger antitumor effect”, respectively. The “binding affinity to mouse SIRPα antigen compared with that of hD13_H1L3 to a human SIRPα antigen” value in experiment [9] was “at the same level”. Moreover, in experiment [9], the “binding affinity to the mouse SIRPα antigen” value is recorded as “high binding affinity”.

The record behind these values is patent US20230414778A1, “COMBINATION OF ANTIBODY-DRUG CONJUGATE WITH ANTI-SIRPalpha ANTIBODY” (DAIICHI SANKYO COMPANY, LIMITED, priority 2020, published 2023).
